Results taken from publication PMC5121632.
Values joined by “and” are separate entries in the source; they are usually repeats but may differ in a detail not shown here. Equal values may be shown once.

How the values were obtained:
[1] = tested on: VT-TALE (dAvrBs3 TALE with periodic non-RVD mutations at repeat positions 4 and 32); assay: ITC; details: ITC: 50 mM Tris-HCl pH 8.0, 200 mM NaCl, 1 mM DTT, 5% glycerol; 15 and 25 °C; 96 μM DNA injected into TALE; single-site model
[2] = tested on: CT-TALE (dAvrBs3 TALE without periodic non-RVD mutations at repeat positions 4 and 32); assay: ITC; details: ITC: 50 mM Tris-HCl pH 8.0, 200 mM NaCl, 1 mM DTT, 5% glycerol; 15 and 25 °C; 96 μM DNA injected into TALE; single-site model

Sequence | Kd [1] | Kd [2]
GGGTATACTCACACAATAGCTGGG (double strand) [EBEf] | 131 nM and 326 nM | 139 nM and 346 nM
GGGTATACTCACTGGGTGTGGGGG (double strand) [EBEn] | 117 nM and 262 nM | 109 nM and 305 nM
